{"source": "the DeepSol protein solubility set", "data": [{"experiment": "soluble on expression in E. coli; label from the status in PepcDB or PDB records", "values": [{"sequence": "MEQLRAAARLQIVLGHLGRPSAGAVVAHPTSGTISSASFHPQQFQYTLDNNVLTLEQRKFYEENGFLVIKNLVPDADIQRFRNEFEKICRKEVKPLGLTVMRDVTISKSEYAPSEKMITKVQDFQEDKELFRYCTLPEILKYVECFTGPNIMAMHTMLINKPPDSGKKTSRHPLHQDLHYFPFRPSDLIVCAWTAMEHISRNNGCLVVLPGTHKGSLKPHDYPKWEGGVNKMFHGIQDYEENKARVHLVMEKGDTVFFHPLLIHGSGQNKTQGFRKAISCHFASADCHYIDVKGTSQENIEKEVVGIAHKFFGAENSVNLKDIWMFRARLVKGERTNL", "soluble on expression in E. coli": "not soluble"}, {"sequence": "MSLGYWGVMGNCFRRLSLFGQPTQAKYEMLCSSDDLETEELTFFLDMTYKDFGVYQNDIISHQKDTETMKTLLGLLPMYKKTKLRHTVMERCLSNCPNHVKDALCVELMKAEKILQTMDVVFMKTLIGEFSMCTENLNQLLNKFATDQSTLSDVEKINSLIEIDGENSKRLLVELDPILHEETGLYQALPNVVTEAPSEKVKSIRVESEGESV", "soluble on expression in E. coli": "not soluble"}, {"sequence": "SLKSFPHGEKAPFPLTLIHINDLHARFDETNQKSSTCTNSKECIAGIARVYHTIKQLKSEYKTKNPLYLNAGDNFQGTLWYNLLRWNVTAYFIKELPPDAMTLGNHEFDHSPKGLAPYLAELEKMKIPTVVANLEKNGEPALKDSKIAPQIVLKVGNRKVGVIGALYDKTHLVAQTGMVTLTNSIEAVRKEAQELKKKNVNIIVVLSHCGLDGDKQLAEEAGDLIDVIVGAHSHSLLLNKDAKVPYDTKYDTIEGDYPLVVKKSNNHTVLITQARSFGKYVGRLTVNFDCEGEVQSWEGYPIYMNNSVKQDEEVLRELEPWRAEVKRLGTQVIGTTEVFLDRESCRWCECTLGDLIADAYADQYTNSTVQPVAFVQAGNFRNPIEKGDITNGLAIEAAPYGSSVDMIKLSGADLWSAIDHSFTLDDEFRYNTAQVSGMTVVADLSKKPYERVQSIDIVGANGAKTALKKDQIYYVAVPSYLADGKDGFAMLKKGTNRVTGPLDSDVLIEYVRKRQTIAKTMFQEKRVVIENHTNGTCSWDLDSQRYKPK", "soluble on expression in E. coli": "not soluble"}, {"sequence": "MTTPLAQRIKSLIRLNGPLSVTDFFSLCLADPEHGYYKSREPFGRSGDFITAPEVSQLFGEMLGVFVVHAWQRHGAPAQTQLVEIGPGRGTMMSDMLRVIRRIAPPLYETMRVHLVETSPRLSAIQKETLTAHADRLTWHDSFDDVPEGFLLLVANELFDAIPIRQFVRTPQGFRERVVSLDANGELVFSTGLAGIDPTLLPPQPERQQLGTVFEVSPAREAVMTAICQRLSVHGGTALAIDYGHLVAGYGDTLQAMRNHAFDPPLAHPGEADLTSHVDFESLVKTAQATGVHVNGALRQGDFLHGLGLKERASALAAKATPDQTLEIAEAVNRLAGEGAGKMGELFKVIAVSSPALHLLPFRAVDLEHHHHHH", "soluble on expression in E. coli": "soluble"}, {"sequence": "MAHHHHHHMSAVLMAAVKVWTGNVRACLRVHHDTRTFCKAMKMRNLPVVLLDGVRFASLESVQHGKVRTRKDVVSGDLCVAIRKLNGVELMDDVQPRDPAIFLRDEKSKTFSAEEAREIYSIIVKSLSHILVVDSEVKTVECGIKRIMGNSTATEPETPKLTDLIRWLKSNMSTHDVLPIFSTQDRTVTFFVNQKIFRRIGHSDNGRRKK", "soluble on expression in E. coli": "not soluble"}, {"sequence": "MSRRASKRPAPYPLLCEQKPEDLLVAPVEHKVYQDFEPKRPREFSPVMAQSLPPGEIDFQPSKIIFNAPYNENQESKIKLINTSALRIAYGINTYMKRLRVDTMCTPNCGVLDPSEEILLTISCDAFAFGQVDTTNDRITVEWTNTSEGSTKQFCRDWLDGDGMVRRKTLPIEYSSSPIAQTSSAPLLQASKHGMWLPIGFAASELYDYAKGEPLDRKTCEKNLEKLIKNDRDVDYYEWLNFAKRCRTQNQNLMEEMALGMAFTTAMANKQHRKISRKAEKITEPITTNKAFSIDSAEKFDRALTLPSRKWFMISDVVTDGDVSNWSTANLVTLVRALARTVFDKVAIADPHMMCYATSQNASTYIPIARDFFEGFAEYILGGFGEEQSRDLKFRVRKLVTDVMGNKLDRVRGRHNKMYGNEASEDATRWLREQLRKEDGELKESRLIFPNGSEMMCNYQVNEENPEGSIKSEIFNDEEEVEME", "soluble on expression in E. coli": "not soluble"}, {"sequence": "MGSDKIHHHHHHMKGYFGPYGGQYVPEILMPALEELEAAYEEIMKDESFWKEFNDLLRDYAGRPTPLYFARRLSEKYGARIYLKREDLLHTGAHKINNAIGQVLLAKKMGKTRIIAETGAGQHGVATATAAALFGMECVIYMGEEDTIRQKPNVERMKLLGAKVVPVKSGSRTLKDAINEALRDWITNLQTTYYVIGSVVGPHPYPIIVRNFQKVIGEETKKQILEKEGRLPDYIVACVGGGSNAAGIFYPFIDSGVKLIGVEAGGEGLETGKHAASLLKGKIGYLHGSKTFVLQDDWGQVQVTHSVSAGLDYSGVGPEHAYWRETGKVLYDAVTDEEALDAFIELSRLEGIIPALESSHALAYLKKINIKGKVVVVNLSGRGDKDLESVLNHPYVRERIR", "soluble on expression in E. coli": "not soluble"}, {"sequence": "KARGNVGFVAGSSYGTGSVWTRNNEVVVLTASHVVGRANMATLKIGDAMLTLTFKKNGDFAEAVTTQSELPGNWPQLHFAQPTTGPASWCTATGDEEGLLSGEVCLAWTTSGDSGSAVVQGDAVVGVHTGSNTSGVAYVTTPSGKLLGADTVTLSSLSKHFTGPLTSIPKDIPDNIIADVDAVPRSLAMLIDGLSNRE", "soluble on expression in E. coli": "soluble"}, {"sequence": "MEEQREALRKIIKTLAVKNEEIQSFIYSLKQMLLNVEANSAKVQEDLEAEFQSLFSLLEELKEGMLMKIKQDRASRTYELQNQLAACTRALESSEELLETANQTLQAMDSEDFPQAAKQIKDGVTMAPAFRLSLKAKVSDNMSHLMVDFAQERQMLQALKFLPVPSAPVIDLAESLVADNCVTLVWRMPDEDSKIDHYVLEYRRTNFEGPPRLKEDQPWMVIEGIRQTEYTLTGLKFDMKYMNFRVKACNKAVAGEFSEPVTLETPAFMFRLDASTSHQNLRVDDLSVEWDAMGGKVQDIKAREKDGKGRTASPINSPARGTPSPKRMPSGRGGRDRFTAESYTVLGDTLIDGGEHYWEVRYEPDSKAFGVGVAYRSLGRFEQLGKTAASWCLHVNNWLQVSFTAKHANKVKVLDAPVPDCLGVHCDFHQGLLSFYNARTKQVLHTFKTRFTQPLLPAFTVWCGSFQVTTGLQVPSAVRCLQKRGSATSSSNTSLT", "soluble on expression in E. coli": "soluble"}, {"sequence": "MSLIKGKELLGRPVVAVSNGAQVDNVHDVVFDHQGNRVLALLVEEGGWLRAAKAVPFGRVQSIGEKAVMIATPEDVVNTGRDPVLKEALAGKTNLIGMTLLTTDGQTLGKITDVYFDERSGQVEGYEASGGLFADMTNGRTFIPAPQSIQIGKDSAIVPAGVAAAMREQAPGGIRGAFHTAGKSLGGAVQGAADSVRGAYEDTSRSVRENYEQVSANVAEAAREGQQQARAAASDLRSRVQGGAEDLREASAERQKDFVVGKVAGQDVRTDNGVLIVAKGTTIDEGQARFAEQNGALPALLAAAAGGSVREGVRDLLADPSSDAGDVVGRRVQEDVRSSVGSLIAVQGQIVTPEVAERARELGLEERLVAATQAPGLQTPPVPDRAELREQASDLRDNLADGLSNVSQNVSQGANELLGRAKSWLGERREDLEDSLDRQEQEAYQARIRDALGRPVTRAVLTRTDRVILQPGELVTHAALDEARAAGVLGLLLDSVDGGEGHHHHHH", "soluble on expression in E. coli": "soluble"}, {"sequence": "SFARGLKRKCVGHEEDVEGALAGLKTVSSYSLQRQSLLDMSLVKLQLCHMLVEPNLCRSVLIANTVRQIQEEMTQDGTWRTVAPQAAERAPLDRLVSTEILCRAAWGQEGAHPAPGLGDGHTQGPVSDLCPVTSAQAPRHLQSSAWEMDGPRENRGSFHKSLDQIFETLETKNPSCMEELFSDVDSPYYDLDTVLTGMMGGARPGPCEGLEGLAPATPGPSSSCKSDLGELDHVVEILVET", "soluble on expression in E. coli": "not soluble"}, {"sequence": "MNFNKLKFGATIGIIGGGQLGKMMAQSAQKMGYKVVVLDPSEDCPCRYVAHEFIQAKYDDEKALNQLGQKCDVITYEFENISAQQLKLLCEKYNIPQGYQAIQLLQDRLTEKETLKSAGTKVVPFISVKESTDIDKAIETLGYPFIVKTRFGGYDGKGQVLINNEKDLQEGFKLIETSECVAEKYLNIKKEVSLTVTRGNNNQITFFPLQENEHRNQILFKTIVPARIDKTAEAKEQVNKIIQSIHFIGTFTVEFFIDSNNQLYVNEIAPRPHNSGHYSIEACDYSQFDTHILAVTGQSLPNSIELLKPAVMMNLLGKDLDLLENEFNEHPEWHLHIYGKSGRKDSRKMGHMTVLTNDVNQTEQDMYAKFEGSN", "soluble on expression in E. coli": "soluble"}, {"sequence": "MSLVRSKAPLRLGLAGGGSDVSPYSDIYGGLILNATINLYAYCTIEETNSGRIEINAYDAQCCKSYLSMSQLEIDGEASLIKGVYNRIIRDYRLEPKSFKITTYNDAPAGSGLGTSSTMVVCILKAFIEWLSLPLGDYETSRLAYEIERKDLGLSGGKQDQYAAAFGGFNYMEFLQNDLVIVNPLKMKRWIVDELESSMVLYFTGRSRSSAAIINEQKKNTSEGNQTAIEAMHKIKQSAIDTKLALLKGDVGEFARILGEGWENKKKMAGAITNPMIQEAFDVATGAGAMAGKVSGAGGGGFIMFVVEPTRKEEVVRALNNLNGFVMPFQFIDDGAHGWKIYSTDKVQKEGHHHHHH", "soluble on expression in E. coli": "soluble"}, {"sequence": "MHDFVGFMNKISQINRDLDKYDHTINQVDSLHKRLLTEVNEEQASHLRHSLDNFVAQATDLQFKLKNEIKSAQRDGIHDTNKQAQAENSRQRFLKLIQDYRIVDSNYKEENKEQAKRQYMIIQPEATEDEVEAAISDVGGQQIFSQALLNANRRGEAKTALAEVQARHQELLKLEKSMAELTQLFNDMEELVIEQQ", "soluble on expression in E. coli": "soluble"}, {"sequence": "NIYLDKRITKQATQFLEAARAIDSREHLISGYRSVAYQEKLFNSYVTQEMTSNPNLTRGQAEKLVKTYSQPAGASEHQTGLAMDMSTVDSLNESDPRVVSQLKKIAPQYGFVLRFPDGKTAETGVGYEDWHYRYVGV", "soluble on expression in E. coli": "not soluble"}, {"sequence": "MRGSHHHHHHGSMSQPDATPFDYILSGGTVIDGTNAPGRLADVGVRGDRIAAVGDLSASSARRRIDVAGKVVSPGFIDSHTHDDNYLLKHRDMTPKISQGVTTVVTGNCGISLAPLAHANPPAPLDLLDEGGSFRFARFSDYLEALRAAPPAVNAACMVGHSTLRAAVMPDLRREATADEIQAMQALADDALASGAIGISTGAFYPPAAHASTEEIIEVCRPLITHGGVYATHMRDEGEHIVQALEETFRIGRELDVPVVISHHKVMGKLNFGRSKETLALIEAAMASQDVSLDAYPYVAGSTMLKQDRVLLAGRTLITWCKPYPELSGRDLEEIAAERGKSKYDVVPELQPAGAIYFMMDEPDVQRILAFGPTMIGSDGLPHDERPHPRLWGTFPRVLGHYSRDLGLFPLETAVWKMTGLTAAKFGLAERGQVQPGYYADLVVFDPATVADSATFEHPTERAAGIHSVYVNGAAVWEDQSFTGQHAGRVLNRAGA", "soluble on expression in E. coli": "soluble"}, {"sequence": "MVPKTATSTETKTITRIIHYVDKVTNQNVKEDVVQPVTLSRTKTENKVTGVVTYGEWTTGNWDEVISGKIDKYKDPDIPTVESQEVTSDSSDKEITVRYDRLSTPEKPIPQPNPEHPSVPTPNPELPNQETPTPDKPTPEPGTPKTETPVNPDPEVPTYETGKREELPNTGTEANATLASAGIMTLLAGLGLGFFKKKEDEKLEHHHHHH", "soluble on expression in E. coli": "soluble"}, {"sequence": "MESFIDRITEETDENFRICRENIPNFETTISPLLNTMKNIKLLLDDAAFDQQKLENNCEETCMNCTKSQLNDFLGIKVEASTIVDVKSQLVPQSKESSALVETNEPNEQGLSSKPKENDIRIVPQITDEEFKTIPKYQLGRLTLEMMNEIVSKMDDFLMKKSKILGKTNKQLTRSDREVLDNWRELEMKARKRLPTTLFFIETDIRPMLQDRLRPSFAKAIPCLRHIRRIREERCGPLTFYYP", "soluble on expression in E. coli": "not soluble"}]}]}
